Experimental data taken from the supplement of paper PMC12764529.
± gives the half width of the 95% confidence interval.

Legend:
[1] = folding stability dG unfold from trypsin proteolysis; higher = more stable
Procedure, shortened: (§1)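 Mini-proteins designed to be under 80 residues and free of cysteine were carried in a PA-tagged cDNA display construct and digested with trypsin and with chymotrypsin. Each protease was applied at 11 threefold-diluted concentrations, alongside a no-protease condition, before sequencing. K50 came from Bayesian fitting of the sequencing counts, and unfolding free energy was obtained by comparing it with a sequence-predicted unfolded-state K50 and a shared folded-state K50, for each protease separately or for both together. Designs were retained only if their AlphaFold2 dimer inter-PAE exceeded 15.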

[2] = folding stability dG unfold from chymotrypsin proteolysis; higher = more stable
Procedure, shortened: as §1

[3] = folding stability dG unfold (combined trypsin and chymotrypsin); higher = more stable
Procedure, shortened: as §1

Row | Sequence | folding stability dG unfold [1] [kJ/mol] | folding stability dG unfold [2] [kJ/mol] | folding stability dG unfold [3] [kJ/mol]
1 | SAGGSAGGSKSYEIKEITFDPENNTITIVLVAPDGKIVRTETFKPGEEVVFTFENGEKVTVKASAGGSAGGS [r12_441_TrMRF] | 8.34 ± 0.247 | 11.83 ± 0.0335 | 10.6 ± 0.209
2 | SAGGSAIFVVKIEPPNGNPITFMFWFKTPEEAESQVEEIAEQLPPDWKVEVEYIPAEDLKNGKPFFSAGGSA [r15_469_TrROS] | 8.93 ± 0.188 | 8.93 ± 0.18 | 9.2 ± 0.285
3 | SAGGSAGGSSMKVEVTVEPVDPARGLYRVTITLYDPNSDTPLKTVPVLAESPEEIEAAILELLSAGGSAGGS [r12_26_JUSTAS] | 10.7 ± 0.46 | 12.2 ± 0.209 | 11.2 ± 0.502
4 | SAGGSMSTSTLVRREIASVDPETGLRVVRVEVEEVDYGFDPKTGTVLGVSPVSPVSESVLLLPADAPPESAG [r5_903_JUSTAS] | -2.73 ± 0.962 | -0.732 ± 0.92 | -1.2 ± 0.962
5 | SAKKTIVVPVEKLKELLDALKEAGYEVKVEYNKENPVVTVTITVKDKNGKELKIELVVDKKTGLVTIKLSAG [r14_169_TrROS_Hall] | 8.24 ± 0.322 | 10.2 ± 0.213 | 9.46 ± 0.544
6 | SAGGSAGGDEIADKVKDLLRKHGWPVKEVEVTVMPHPPGRVYVMIEITMEHPGKKWTMEIMVEVSAGGSAGG [r6_533_TrROS] | 13.2 ± 0.586 | 20.1 ± 0.226 | 19.5 ± 0.544
7 | SAGGSAGGSGMTEVVAEKKYPNEVILVTKEPDSYYIVKVTLKDGKVVEKENLGKISPDDPSILSAGGSAGGS [r12_154_JUSTAS] | -0.194 ± 0.272 | -1.92 ± 1.63 | -0.258 ± 0.92
8 | SALIETAEELARELGVEAELVEIEEGEDVALLRIRLRVDGVPYYFLVRIERPGEDPRIFRVEILEVRPESAG [r14_387_TrMRF] | 15.4 ± 0.297 | 18 ± 0.142 | 17.01 ± 0.13
9 | SAGGSAGGMPVSVEIELTVPTSPDETPEEALERIREELAPLGVEEVTATPLPDGTVRFRITVPRSAGGSAGG [r6_882_JUSTAS] | 6.01 ± 0.201 | 2.11 ± 0.837 | 4.02 ± 0.544
10 | SAGGSAGGSGSTVVEVEFPDARIVITVEPPGVLTVTVERPPFPVETVRLPDMTVEEAVAYALASAGGSAGGS [r20_8_JUSTAS] | 7.38 ± 0.222 | 4.75 ± 0.41 | 6.21 ± 0.31
11 | SAGGSAIKLPPGVKIEYHMHPDGYMTITIEYPNGRPIEIPMRMDPNGPREMTPDQIRDFIKELLKNSAGGSA [r15_780_TrROS] | 10.1 ± 0.159 | 9.77 ± 0.109 | 10 ± 0.205
12 | SPSADAKVRVEPLPGPGYLATLEDGSLVLVHPDGTVIEVTETKVRIRVFTPDKPLLELEIEIPPPAPDEPSA [r9_901_TrMRF] | 3.36 ± 0.397 | 5.26 ± 0.276 | 4.95 ± 0.669
13 | SAGKKKKKVKKKTVKLTITVKLKPGMTEEEALEKVKELAKALLPPGAKIKEVKFDKETKTVTVEIELTSAGG [r19_81_TrROS_Hall] | 9.01 ± 0.226 | 8.38 ± 0.962 | 9.4 ± 0.795
14 | SAGGSAGGSADEIPIMIKIKYKNGGKKREHTITFRVEPNMPNLDEFAKELANNGRIEEVEISAGGSAGGSAG [r3_30_TrROS] | 2.63 ± 0.586 | -1.18 ± 2.47 | 1.17 ± 1.05
15 | SAGGKKKKPKKKIKIKIVKVEKKYDKKTGKLKEVRIEIEIEAESEEEAKKLAEELAKKLNIEVEVKKKSAGG [r13_606_TrROS_Hall] | 5.34 ± 0.46 | 10.2 ± 0.402 | 8.42 ± 1.34
16 | SAGSKEEKAKEIAKKLAEELKKKFPDLKIVEVKVVKIEYNKENKEIKITIYVYNKNGKLIKKIEITLPSAGG [r19_53_TrROS_Hall] | 15 ± 0.837 | 19.4 ± 0.46 | 18.3 ± 0.753
17 | SAGGSAGGEYEISIPNYELTEEKFDPNPGLLTVTYKDPEGKLVTITYKVKPDSIEKVKTETFEPSAGGSAGG [r6_719_JUSTAS] | 2.38 ± 0.092 | 4.78 ± 0.205 | 4.03 ± 0.268
18 | GLTVTLDGNSLTVTADAGDKTVTVTAPVFHPEKGLVTVVTVTATREDGALVLHTESRTIRLPPLPPLHPDLS [r1_100_TrMRF] | 9.27 ± 1.21 | 17.5 ± 2.38 | 15 ± 1.8
19 | SAGGSADPGKPIQIAIMIHIDPEPGRIEIPIYIMDDNRVRPVSIEFTPAGTLKIEVGNKEIEIPIKSAGGSA [r15_507_TrROS] | 10.3 ± 0.711 | 8.41 ± 0.176 | 9.39 ± 0.669
20 | SMITLELTDPATGAKYTLTIDPSTGKAKVTRTPPTGPPVSGTGTIEGNTLTITLYEPSGKPLATLTLPLPSA [r9_665_JUSTAS] | 16.3 ± 0.46 | 23.1 ± 0.418 | 23.4 ± 0.544
21 | SAGGSAGGSAPPNLKIEIDLQRHPEDDHIFLEMEATYPDDGKELKVMIMINPDDGKIGIMIMSAGGSAGGSA [r18_383_TrROS] | 11.5 ± 0.92 | 15.5 ± 1.21 | 14 ± 1.21

Row | Sequence | folding stability dG unfold [1] [kJ/mol] | folding stability dG unfold [2] [kJ/mol] | folding stability dG unfold [3] [kJ/mol]
22 | SAGGSPETKTISFKYPGNGMRIMVQVERDPADGKKKITINMENNPYMAERAKKALEELGLPVEIHPSAGGSA [r2_30_TrROS] | 5.79 ± 0.544 | 4.76 ± 0.502 | 5.5 ± 0.502
23 | SAGGSAGGSAGPVVVEVDGKLVIFNPEDGTVTVFEFDKDGKLVEEKEFTVPPEVTLVEEDSAGGSAGGSAGG [r17_385_TrROS_Hall] | 5.94 ± 0.46 | 4.42 ± 0.163 | 5.31 ± 0.544
24 | SAGGSAGGSAQPIPIKIRIRMRDDGKPQTFTFEVPVKPGATESTILDKIMKKFPGFRHIEIESAGGSAGGSA [r18_195_TrROS] | 4.44 ± 0.146 | 4.02 ± 0.276 | 4.44 ± 0.356
25 | SAGGSAGGSAGMLARITLSTPEKPVEYIVPESEVEEYIKKLNLPEDTEVTVTPVDPAALLSAGGSAGGSAGG [r17_395_JUSTAS] | 2.4 ± 0.092 | 7.53 ± 0.134 | 5.86 ± 0.155
26 | SAGGSAGGSAGGMRIRLENGEVIKIKNAKTKEELLNALKAIPGLKIEYDEETKELWIYRSAGGSAGGSAGGS [r10_792_TrROS_Hall] | 7.88 ± 0.314 | 9.77 ± 0.406 | 9.3 ± 0.669
27 | SAGYKATIIPPDGSEVTIDVKAEDLGPLVEELEKAGLKVESLEVSPDGTAVIPVTSPDGKPYLIVIDLKSAG [r5_645_TrMRF] | 1.75 ± 0.134 | 1.28 ± 0.46 | 1.73 ± 0.393
28 | SAGGSAMKEIEINGYKVRIVKIDEKTGKITIYLYPNASEEMKEKVAELLKELGFEIEVEEVSPEELSAGGSA [r15_570_TrROS_Hall] | 14.2 ± 1.17 | 14.8 ± 0.586 | 14.4 ± 0.669
29 | SAGGENYTFEMEITIPIPLPNPNGKLKKLPIKVPIEYEYDDPAQRNQAMQNMIMRIIDLALKELGVPSAGGS [r16_339_TrROS] | 6.1 ± 0.201 | 8.88 ± 0.167 | 7.95 ± 0.669
30 | SAGGSAGKPVLVRVKLRLEFPGTGELAEAEVVVEADSIEDALDRVLKELTLPDFKAEVLDVKAIPLSAGGSA [r2_320_TrMRF] | 8.81 ± 0.46 | 8.51 ± 0.121 | 9.02 ± 0.544
31 | SAGIEIDIEVDPENGFIKITAKIHNPDGNPVYEMEMWIPVDNGRIYRVDIRINPDNGKIELDIEPFPLNSAG [r5_34_TrROS] | 14.5 ± 1.21 | 16.3 ± 1 | 15.9 ± 1.09
32 | SAGGSAGGSAMKYYVTITFTDPNNGNTTTEIKEVTTEEEVEKVVEELAPSSYASVKVSIKPKSAGGSAGGSA [r18_258_JUSTAS] | 1.27 ± 0.247 | 4.85 ± 1.17 | 3.73 ± 0.837
33 | SAGGSAGGSAMTVRIEFEDGSVKEIPAEEFSEDFIKALPKKYKVSEYPEPPLDNNKSNILKSAGGSAGGSAG [r3_69_JUSTAS] | -0.0546 ± 0.247 | 2.92 ± 0.356 | 1.8 ± 0.381
34 | SMEEAIEEAIKKNEEAIAAGGGPVKVELEVPGYRIDLTFSPNGLKITNIEEKNSPDGIPSVKSTSDVPPPSA [r9_308_JUSTAS] | 3.54 ± 0.356 | -2.11 ± 0.46 | 1.19 ± 0.586
35 | SAGGMLTLTDPETGVPYTGTPVSTTTTTVVLTTPDGTPVETVTVTVTTYEFTAPDGTPVTLTETTGLSAGGS [r8_214_JUSTAS] | 7.32 ± 0.297 | 9.5 ± 0.105 | 8.72 ± 0.218
36 | SAGGSAGGSAGGMPTYEVTLEPDPTGGDVYTVTVTFPDGSTVTRNATPAELKAEGLTVKVSAGGSAGGSAGG [r7_14_JUSTAS] | 4.56 ± 0.163 | 3.68 ± 0.184 | 4.05 ± 0.301
37 | SAGGMVNLRLYNPATGEPIDFPVPKDVVEEMLKNGDLAALEALFPGFPIAKVEVDEGEEVPAVPPDEASAGG [r13_629_TrMRF] | 3.25 ± 0.134 | 0.135 ± 0.628 | 1.93 ± 0.586
38 | SAGGSAGGSAGGSSMSSGPGRLSITTSTVDTGSFFKPGGEVEGSKTTTVTVTTLLPPSTPSAGGSAGGSAGG [r7_614_JUSTAS] | 0.879 ± 0.105 | 5.33 ± 0.28 | 3.8 ± 0.226
39 | SAGGLEEIAEKIAEELKKKGYKAEIKEVVKPPTNEVVIKYTVTYKDKNEIIEEEEKEITFKLPPGLESAGGS [r8_102_JUSTAS] | -2.32 ± 0.669 | 3.1 ± 0.586 | 1.58 ± 0.669
40 | SAGGSAGGSAGGKKVILIRGLTPEEIEALAKELEELFPDLKVTIERLPGEEGTLLITVDSAGGSAGGSAGGS [r10_852_TrROS_Hall] | 12.2 ± 0.711 | 7.98 ± 0.418 | 9.98 ± 0.586
41 | SAGGSAKRYFIMIDIRYPGDGKEIYPLVIPIPPGEPISIEDILDEIGFPPENADNVDIEIHTFRAKSAGGSA [r15_665_TrROS] | 6.53 ± 0.326 | 6.55 ± 0.586 | 6.34 ± 0.92
42 | SAGGSAGGSRKTILFRFPDGMMIKISLEENPNGNKRVRVTVYNPDNGKKRRMPADELPPNAKISAGGSAGGS [r12_797_TrROS] | 4.77 ± 0.331 | 13.1 ± 0.377 | 11.1 ± 0.628
